Reference: US20220241202A1, “METHOD AND VEHICLE FOR DELIVERING AGENTS ACROSS THE BLOOD-BRAIN BARRIER” (priority 2019, published 2022)

B1: CSPα: cysteine string protein alpha, DnaJ domain-containing protein chaperone, myc-tagged, expressed in CAD cells (protein, UniProt Q9H3Z4 1-198, looked up)
DnaJ homolog subfamily C …: MADQRQRSLSTSGESLYHVLGLDKNATSDDIKKSYRKLALKYHPDKNPDNPEAADKFKEINNAHAILTDATKRNIYDKYGSLGLYVAEQFGEENVNTYFVLSSWWAKALFVFCGLLTCCYCCCCLCCCFNCCCGKCKPKAPEGEETEFYVSPEDLEAQLQSDEREATDTPIVIQPASATETTQLTADSHPSYHTDGFN
modifications: myc tag
notes: cysteine string protein alpha, DnaJ domain-containing protein chaperone, myc-tagged, expressed in CAD cells

Tests used:
Format in all cases: cell-based
CAD cells [1] = assay: EV secretion of GFP-tagged 72Q huntingtin^exon1 from CAD cells with or without β amyloid peptide; settings: 12.5 μg/ml β amyloid peptide, added 6 hours after transfection, media collected at 48 hours
Description: CAD cells were transiently transfected with GFP-tagged 72Q huntingtin^exon1 and a vector control, CSPα, DnaJB2long, or DnaJB6long. 6 hours after transfection, the cells were treated with 12.5 μg/ml β amyloid peptide (Aβ) or left untreated. 48 hours after transfection, the media was collected, EVs were prepared, and EV secretion of GFP-tagged 72Q huntingtin^exon1 was measured.

CAD cells [2] = assay: Nanoscale flow cytometry of EVs secreted from CAD cells expressing GFP-72Q huntingtin^exon1
Description: (§1) Cell lines were transfected with the molecular chaperone CSPα and a GFP-tagged protein. CAD cells (catecholaminergic derived CNS cells) were the cell line utilized. Other cell lines, including patient-derived cell lines, may also be utilized. cDNAs encoding for myc-tagged CSPα or vector alone and GFP-72Q huntingtin^exon1 were transiently transfected with Lipofectamine™ 3000 (Invitrogen) in Opti-MEM™ medium. Media was changed to serum-free media 6 hours post-transfection. Media was collected 48 hours after transfection, spun at 300×g for 5 min to remove cell debris and evaluated without further processing by nanocyte tracking analysis, nanoscale flow cytometry analysis and dot blot analysis. For western blot analysis, EVs were isolated from the unfractionated media by exoquick precipitation solution (SBI) and solubilized in sample buffer. Following media collection, cell viability was determined using an XTT assay (New England Biolabs). When resveratrol was used, it was added to the serum-free media 6 hours post-transfection at the time of the media change.
For NTA and nanoscale flow cytometry analysis, all samples were diluted 25 fold using 0.2× phosphate buffered saline that had been filtered twice through 0.2 μm filter. For NTA analysis, all samples were analyzed using the Nanosight LM10 (405 nm laser, 60 mW, software version 3.00064). Samples were analyzed in triplicate for 60 seconds per replicate with a count range of 20-100 particles per frame. A variety of NIST (Thermo Scientific 3000 Series) standards were analyzed, each the day prior to sample analysis. The system was cleaned between each sample and checked for any sample carryover using the PBS diluent. NTA measures EVs within a size range from about 30 nm to about 1,000 nm.
Samples were similarly prepared for nanoscale flow cytometry as for NTA. All samples were analyzed using the Apogee A50 flow cytometry platform. Light scatter was provided using the 405 nm laser (75 mW); GFP signal was generated using the 488 nm laser (50 mW, 535/35) and far red signal was generated using the 630 nm laser (75 mW, 680/35). All samples were analyzed for 60 seconds. Optimization was performed to insure single EVs were being analyzed and single events were triggered by light scatter only. The system was cleaned each day prior to sample analysis and a variety of silica and polystyrene standards (Apogee 1493 standards) processed for instrument set up and QC. The silica standards were used to assess the relative size range of EVs. Nanoscale flow cytometry measures EVs within a size range from about 100 nm to about 1,300 nm. […]

CAD cells [3] = assay: Cell viability after media collection (XTT assay); settings: various levels of CSPα expression
Description: as §1

[4] = cells express the protein, p<0.0001
[5] = presence of CSPα, no resveratrol

Molecule | secretion of GFP-tagged 72Q huntingtin^exon1 by CSPα, DnaJB2long and DnaJB6long (CAD cells [1]) | Secretion of EVs containing GFP-tagged 72Q huntingtin^exon1 (CAD cells [2]; [4]) | percentage of EVs containing GFP-72Q huntingtin^exon1 within the total EV pool (CAD cells [2]; [4]) | increase of export of EVs containing GFP-72Q huntingtin^exon1 within the 180-240 nm subpopulation (CAD cells [2]; p<0.0001) | EVs containing GFP cargo within the 180-240 nm subpopulation (CAD cells [2]; [5]) | EVs containing GFP cargo within the <180 nm subpopulation (CAD cells [2]; [5]) | EVs containing GFP cargo within the >240 nm subpopulation (CAD cells [2]; [5]) | 180-240 nm EV export of GFP-72Q huntingtin^exon1 as a function of cellular CSPα expression (CAD cells [2]; various levels of CSPα, parallel western blot) | Cell viability after media collection (CAD cells [3])
β amyloid peptide: β amyloid peptide (Aβ, AggreSure™ obtained from AnaSpec) | increased the secretion of GFP-tagged 72Q huntingtin^exon1 | – | – | – | – | – | – | – | –
B1 | – | dramatically increased | dramatically increased | > 400% | 1% | 0.06% | 1.6% | correlates with increases in 180-240 nm EV export | not influenced
